The values that follow come from PMC13235457.

The target of assay [1] is ZAP-70 tSH2 domain R190A mutant (human) (UniProt P43403). Description: ITC; 20 μM R190A tSH2 in the cell, 300 μM ITAM-ζ1-Y2P in the syringe; 20 °C; 20 mM HEPES pH 8.2, 5 mM β-mercaptoethanol, glycerol-free; 20 mM KCl; one-site model. (In general: ITC needs no label: the signal is the heat of the interaction.)
The target is the same in assay [2]. As to the kind of experiment: ITC; 20 μM R190A tSH2 in the cell, 300 μM ITAM-ζ1-Y2P in the syringe; 20 °C; 20 mM HEPES pH 8.2, 5 mM β-mercaptoethanol, glycerol-free; 5 mM KCl; one-site model.
The target is the same in assay [3]. Description: ITC; 20 μM R190A tSH2 in the cell, 300 μM ITAM-ζ1-Y2P in the syringe; 20 °C; 20 mM HEPES pH 8.2, 5 mM β-mercaptoethanol, glycerol-free; 150 mM NaCl; one-site model.

For orientation: Kd means the constant that tells how readily two partners part at equilibrium. As to “ITAM-ζ1-Y2P peptide (doubly phosphorylated first ITAM of the CD3-ζ chain)”, the figures for the Kd in assay [1], in assay [2] and in assay [3] were 20.9 µM, 9.77 µM and 6.33 µM, respectively.
